# According to PMC4569402:
# Where “and” joins values, the source holds several entries; their conditions need not be identical. Equal values may be shown once.
# Columns and labels:
# [1] = target: BNP with deletion of aa 1-38 (BNP-Δ38) (influenza B virus (B/panama/45/1990)); assay: negative-stain electron microscopy
# [2] = target: BNP with deletion of aa 1-66 (BNP-Δ66) (influenza B virus (B/panama/45/1990)); assay: negative-stain electron microscopy
Substance,stoichiometry N [1],stoichiometry N [2]
BNP with deletion of aa 1-38 (BNP-Δ38) (domain or fragment),4 and 5,
BNP with deletion of aa 1-66 (BNP-Δ66) (domain or fragment),,4 and 5
